Assays:
Type in all cases: biochemical
CDK1/cyclinB = target: T1, CDK1/cyclinB (Homo sapiens, UniProt P06493); test: Millipore radiometric kinase activity assay, CDK1/cyclinB (h)
T1 construct: purchased Millipore (assay service)
Method: (§1) A commercial radiometric assay service (Millipore, Billerica, Mass.) was used to test the specificity and potency of peptides containing a coupled transduction domain and therapeutic domain, hereinafter “complete peptides”). In these assays, if the kinase is not inhibited by an inhibitor peptide, a positively charged substrate is phosphorylated with a radiolabeled phosphate group from an ATP.
(§2) In a final reaction volume of 25 μL, CDK1/cyclinB (h) (5-10 mU) is incubated with 8 mM MOPS pH 7.0, 0.2 mM EDTA, 0.1 mg/mL histone H1, 10 mM MgAcetate and [γ-^33P-ATP] (specific activity approx. 500 cpm/pmol, concentration as required). The reaction is initiated by the addition of the MgATP mix. After incubation for 40 minutes at room temperature, the reaction is stopped by the addition of 5 μL of a 3% phosphoric acid solution. 10 μL of the reaction is then spotted onto a P30 filtermat and washed three times for 5 minutes in 75 mM phosphoric acid and once in methanol prior to drying and scintillation counting.
(§3) IC50 values for inhibitor peptides were determined using Millipore's IC50Profiler Express service. The IC50 value was estimated from a 10-point curve of one-half log dilutions. For peptides tested for specificity, the concentration of the peptides that inhibited approximately 95% of MK2 activity was chosen to profile against a battery of kinases related to MK2, cell viability, or human disease from MilliporeKinaseProfiler service. In both assays, compounds were supplied in dimethylsulfoxide (DMSO). Every kinase activity measurement was conducted in duplicate.
(§4) Therapeutic inhibitor peptides were assayed for activity against human kinases related to MK2, cell viability, or human disease. The assays were performed using concentrations of therapeutic inhibitor peptides that yielded 2% to 8% of normal MK2 activity. Error is reported as the standard deviation between 2 samples, and “c” is rat AMPK whereas all other kinases used are human kinases.

c-Kit = target: T2, c-Kit (Homo sapiens, UniProt P10721); test: Millipore radiometric kinase activity assay, c-Kit (h)
T2 construct: purchased Millipore (assay service)
Method: as §1
as §2, with “c-Kit” for “CDK1/cyclinB”, “EDTA, 10 mM MnCl2,” for “EDTA,”, “poly(Glu, Tyr) 4:1,” for “histone H1,”, “Filtermat A” for “P30 filtermat”
as §3, §4

IGF-1R = target: T3, IGF-1R (Homo sapiens, UniProt P08069); test: Millipore radiometric kinase activity assay, IGF-1R (h)
T3 construct: purchased Millipore (assay service)
Method: as §1
as §2, with “IGF-1 R” for “CDK1/cyclinB”, “50” for “8”, “Tris” for “MOPS”, “7.5, 0.1” for “7.0, 0.2”, “EGTA,” for “EDTA,”, “mM Na3VO4, 0.1% β-mercaptoethanol, 250 μM […] [SEQ ID NO: 56], 10 mM MnCl2,” for “mg/mL histone H1,”
as §3, §4

PKG1β = target: T4, PKG1β (Homo sapiens, UniProt Q13976); test: Millipore radiometric kinase activity assay, PKG1β (h)
T4 construct: purchased Millipore (radiometric assay service)
T4 sequence (Q13976 1-686 isoform Q13976-2): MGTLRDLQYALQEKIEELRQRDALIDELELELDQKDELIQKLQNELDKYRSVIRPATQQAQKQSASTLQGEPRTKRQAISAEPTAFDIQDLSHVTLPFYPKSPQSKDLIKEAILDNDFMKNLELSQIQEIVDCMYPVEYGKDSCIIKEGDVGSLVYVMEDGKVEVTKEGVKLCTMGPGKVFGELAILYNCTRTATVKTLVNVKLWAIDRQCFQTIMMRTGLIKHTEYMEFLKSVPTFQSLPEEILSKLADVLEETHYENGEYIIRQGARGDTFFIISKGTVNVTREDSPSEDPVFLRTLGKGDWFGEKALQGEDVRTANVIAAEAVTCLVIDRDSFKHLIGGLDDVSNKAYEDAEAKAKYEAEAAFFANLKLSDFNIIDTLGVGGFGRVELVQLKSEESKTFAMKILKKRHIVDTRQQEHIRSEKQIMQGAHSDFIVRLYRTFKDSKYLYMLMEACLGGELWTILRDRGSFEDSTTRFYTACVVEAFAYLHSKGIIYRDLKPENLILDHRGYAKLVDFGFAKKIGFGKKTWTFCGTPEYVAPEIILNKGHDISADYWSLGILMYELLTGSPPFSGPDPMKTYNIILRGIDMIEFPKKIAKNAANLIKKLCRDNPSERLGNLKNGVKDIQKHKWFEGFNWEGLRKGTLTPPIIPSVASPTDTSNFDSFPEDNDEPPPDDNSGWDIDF
Method: as §1
as §2, with “PKG1β” for “CDK1/cyclinB”, “10 μM cGMP, 200 μM […] [SEQ ID NO: 62],” for “0.1 mg/mL histone H1,”
as §3, §4

TrkA = target: T5, TrkA (Homo sapiens, UniProt P04629); test: Millipore radiometric kinase activity assay, TrkA (h)
T5 construct: purchased Millipore (radiometric assay service)
Method: as §1
as §2, with “TrkA” for “CDK1/cyclinB”, “250 μM […] [SEQ ID NO: 56],” for “0.1 mg/mL histone H1,”
as §3, §4

T5 sequence (P04629 33-796): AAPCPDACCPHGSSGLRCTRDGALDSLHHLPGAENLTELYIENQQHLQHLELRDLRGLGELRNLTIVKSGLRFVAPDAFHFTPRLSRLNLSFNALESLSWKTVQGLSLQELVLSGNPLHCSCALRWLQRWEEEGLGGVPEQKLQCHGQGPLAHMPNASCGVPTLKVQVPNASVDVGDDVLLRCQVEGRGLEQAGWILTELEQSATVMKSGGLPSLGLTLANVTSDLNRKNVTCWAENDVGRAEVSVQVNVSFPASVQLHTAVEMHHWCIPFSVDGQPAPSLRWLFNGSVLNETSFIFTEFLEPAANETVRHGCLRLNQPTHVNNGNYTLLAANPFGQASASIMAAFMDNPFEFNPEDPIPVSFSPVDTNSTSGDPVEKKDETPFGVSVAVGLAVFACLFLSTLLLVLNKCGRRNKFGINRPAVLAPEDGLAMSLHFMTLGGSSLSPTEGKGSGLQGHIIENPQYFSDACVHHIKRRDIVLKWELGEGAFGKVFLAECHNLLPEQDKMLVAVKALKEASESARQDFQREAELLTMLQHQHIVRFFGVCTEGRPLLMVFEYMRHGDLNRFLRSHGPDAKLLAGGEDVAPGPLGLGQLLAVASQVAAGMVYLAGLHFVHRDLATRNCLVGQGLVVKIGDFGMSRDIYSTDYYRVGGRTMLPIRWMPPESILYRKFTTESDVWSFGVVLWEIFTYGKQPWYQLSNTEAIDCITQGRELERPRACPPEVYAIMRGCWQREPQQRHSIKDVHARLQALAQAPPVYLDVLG
T1 sequence (P06493 whole entry): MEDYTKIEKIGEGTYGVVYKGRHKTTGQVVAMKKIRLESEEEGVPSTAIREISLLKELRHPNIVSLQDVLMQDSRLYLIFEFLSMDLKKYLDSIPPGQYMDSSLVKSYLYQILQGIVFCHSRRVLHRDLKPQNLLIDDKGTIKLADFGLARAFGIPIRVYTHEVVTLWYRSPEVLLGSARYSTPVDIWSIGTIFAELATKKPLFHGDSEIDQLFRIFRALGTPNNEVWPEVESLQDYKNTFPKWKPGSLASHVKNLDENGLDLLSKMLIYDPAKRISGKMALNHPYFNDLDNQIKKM
T1 sequence (P14635 whole entry partner): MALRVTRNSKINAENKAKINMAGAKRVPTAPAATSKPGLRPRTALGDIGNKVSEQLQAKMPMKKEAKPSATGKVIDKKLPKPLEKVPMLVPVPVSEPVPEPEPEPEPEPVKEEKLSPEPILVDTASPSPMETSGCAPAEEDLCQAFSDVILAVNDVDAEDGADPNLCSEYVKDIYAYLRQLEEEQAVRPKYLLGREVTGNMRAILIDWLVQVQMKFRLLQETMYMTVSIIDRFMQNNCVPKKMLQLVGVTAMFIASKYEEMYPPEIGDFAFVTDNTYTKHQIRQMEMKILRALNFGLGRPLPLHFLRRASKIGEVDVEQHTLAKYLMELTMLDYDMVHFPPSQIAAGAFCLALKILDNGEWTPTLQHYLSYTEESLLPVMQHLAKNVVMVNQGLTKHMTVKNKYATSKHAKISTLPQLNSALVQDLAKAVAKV
T2 sequence (P10721 26-976): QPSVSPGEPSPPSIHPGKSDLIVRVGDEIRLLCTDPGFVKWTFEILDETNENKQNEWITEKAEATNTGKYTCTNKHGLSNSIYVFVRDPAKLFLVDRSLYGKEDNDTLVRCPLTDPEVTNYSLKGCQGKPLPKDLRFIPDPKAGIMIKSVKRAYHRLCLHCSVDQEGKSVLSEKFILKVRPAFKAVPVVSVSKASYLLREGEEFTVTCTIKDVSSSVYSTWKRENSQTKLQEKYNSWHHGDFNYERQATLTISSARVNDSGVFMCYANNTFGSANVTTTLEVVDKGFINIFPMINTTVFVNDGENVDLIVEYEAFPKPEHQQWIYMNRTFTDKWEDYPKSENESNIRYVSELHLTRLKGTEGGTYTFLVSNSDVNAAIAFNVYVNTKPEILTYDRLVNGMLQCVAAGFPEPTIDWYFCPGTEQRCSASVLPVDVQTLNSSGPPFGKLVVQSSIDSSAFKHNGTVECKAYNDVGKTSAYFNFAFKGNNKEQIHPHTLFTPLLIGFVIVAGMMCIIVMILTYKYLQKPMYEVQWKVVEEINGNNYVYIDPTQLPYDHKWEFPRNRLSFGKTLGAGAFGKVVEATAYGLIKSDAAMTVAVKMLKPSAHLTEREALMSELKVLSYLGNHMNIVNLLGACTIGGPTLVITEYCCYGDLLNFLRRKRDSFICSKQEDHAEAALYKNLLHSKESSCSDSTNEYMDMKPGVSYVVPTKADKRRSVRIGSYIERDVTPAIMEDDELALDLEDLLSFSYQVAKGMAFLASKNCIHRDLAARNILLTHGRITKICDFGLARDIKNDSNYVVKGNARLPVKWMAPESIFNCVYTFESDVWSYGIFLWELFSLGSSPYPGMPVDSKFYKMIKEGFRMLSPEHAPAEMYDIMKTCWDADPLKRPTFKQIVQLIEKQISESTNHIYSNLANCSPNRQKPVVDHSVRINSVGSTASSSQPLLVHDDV
T3 sequence (P08069 31-1367): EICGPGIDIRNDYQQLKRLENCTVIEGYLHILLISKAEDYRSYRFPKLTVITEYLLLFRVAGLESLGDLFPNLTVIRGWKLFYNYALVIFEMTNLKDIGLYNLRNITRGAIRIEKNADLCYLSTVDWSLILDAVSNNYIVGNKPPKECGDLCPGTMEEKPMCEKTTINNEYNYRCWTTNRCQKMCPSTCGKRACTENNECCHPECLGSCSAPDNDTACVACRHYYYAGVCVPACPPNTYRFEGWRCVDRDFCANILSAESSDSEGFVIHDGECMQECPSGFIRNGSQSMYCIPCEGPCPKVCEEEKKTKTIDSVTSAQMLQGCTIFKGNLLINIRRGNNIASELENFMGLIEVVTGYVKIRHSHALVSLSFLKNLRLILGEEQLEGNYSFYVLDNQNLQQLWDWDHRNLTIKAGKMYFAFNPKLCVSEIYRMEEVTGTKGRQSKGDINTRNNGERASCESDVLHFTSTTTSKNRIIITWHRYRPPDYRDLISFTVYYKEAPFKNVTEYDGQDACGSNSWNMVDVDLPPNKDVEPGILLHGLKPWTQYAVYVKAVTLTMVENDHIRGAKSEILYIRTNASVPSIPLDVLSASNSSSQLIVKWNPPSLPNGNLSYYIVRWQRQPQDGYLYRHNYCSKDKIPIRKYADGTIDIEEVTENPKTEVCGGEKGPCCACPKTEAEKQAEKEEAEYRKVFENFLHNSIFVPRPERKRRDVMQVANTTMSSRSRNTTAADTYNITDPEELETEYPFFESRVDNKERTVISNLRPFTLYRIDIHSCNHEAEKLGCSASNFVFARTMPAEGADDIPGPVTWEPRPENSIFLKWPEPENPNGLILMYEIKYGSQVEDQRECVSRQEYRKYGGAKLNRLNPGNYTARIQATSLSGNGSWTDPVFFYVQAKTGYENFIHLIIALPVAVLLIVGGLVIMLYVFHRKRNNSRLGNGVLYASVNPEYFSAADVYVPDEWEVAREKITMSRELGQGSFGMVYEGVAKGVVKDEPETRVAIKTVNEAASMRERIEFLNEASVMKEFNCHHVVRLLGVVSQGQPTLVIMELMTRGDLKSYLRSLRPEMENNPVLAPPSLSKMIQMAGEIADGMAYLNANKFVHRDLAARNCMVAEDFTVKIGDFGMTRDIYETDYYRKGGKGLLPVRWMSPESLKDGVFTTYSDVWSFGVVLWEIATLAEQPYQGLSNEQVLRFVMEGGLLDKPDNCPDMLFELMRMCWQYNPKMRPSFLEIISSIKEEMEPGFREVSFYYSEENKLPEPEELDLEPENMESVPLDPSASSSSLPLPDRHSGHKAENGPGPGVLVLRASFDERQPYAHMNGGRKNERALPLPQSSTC

Row | Sequence | CDK1/cyclin B Kinase Activity (%) (+SD %) (CDK1/cyclinB; peptide 100 μM) | cKit Kinase Activity (%) (+SD %) (c-Kit; peptide 100 μM) | IGF-1R Kinase Activity (%) (+SD %) (IGF-1R; peptide 100 μM) | PKG1β Kinase Activity (%) (+SD %) (PKG1β; peptide 100 μM) | TrkA Kinase Activity (%) (+SD %) (TrkA; peptide 100 μM) | CDK1/cyclin B Kinase Activity (%) (+SD %) (CDK1/cyclinB; peptide 30 μM) | cKit Kinase Activity (%) (+SD %) (c-Kit; peptide 30 μM) | IGF-1R Kinase Activity (%) (+SD %) (IGF-1R; peptide 30 μM) | PKG1β Kinase Activity (%) (+SD %) (PKG1β; peptide 30 μM) | TrkA Kinase Activity (%) (+SD %) (TrkA; peptide 30 μM)
1 | KAFAKLAARLYRKALARQLGVAA | 55 (3) % | 31 (6) % | 76 (12) % | 24 (5) % | 16 (2) % | – | – | – | – | –
2 | WLRRIKAWLRRIKALNRQLGVAA | 36 (2) % | 42 (3) % | 69 (4) % | 15 (1) % | 17 (2) % | 17 (0) % | 23 (2) % | 227 (12) % | 15 (4) % | 6 (1) %

Reference: patent US9327008B2, “Cell-permeant peptide-based inhibitor of kinases” (Purdue Research Foundation, priority 2008, dated 2016)
